Results published in patent US20170298096A1 (CANIMGUIDE THERAPEUTICS, published 2017).
No end group written: not given here.

T1: His-tagged P3028 (human, also: His-tag, terminus and sequence not given here)
T1 construct: used in solution in the PEPSCAN (rampo) ELISA; also called PGE73; His-tag-P3028; not shown: His tag
T1 peptide: VFDEFKPLVEEPQNLIK

T2: His-tagged P3028 (human, not fully specified)
T2 construct: the tag is put first after 'PGE73=His-tag-P3028'; also called PGE73; not shown: His-tag
T2 peptide: {His‑tag}-VFDEFKPLVEEPQNLIK


Target: T1, His-tagged P3028
Assay: PEPSCAN ELISA (rampo)
Protocol: After washing, the peroxidase substrate 2,2′-azine-di-3-ethylbenzthiazoline sulfonate (ABTS) and 2 μL of 3% H2O2 were added. The binding capacity of the mAb was measured as a color development at 405 nm (optical density, OD405). The color development was quantified with a charge-coupled device (CCD)—camera and an image processing system.
The OD405-values obtained by a CCD-camera was considered as raw data values (“rampo values,” “rampo units,” or “rampo scores”). […] First the CCD-camera made a picture of the card before peroxidase coloring and then again a picture after the peroxidase coloring. […] These values were copied into an excel file and labeled as a raw data file. One follow-up manipulation was allowed. Sometimes a well can contain an air-bubble resulting in a false-positive value. If manual inspection of the cards detect an air-bubble the value are set to 0 for that well.

| Binder | rampo value [rampo units] | rampo score relative to the P28R control sample |
| --- | --- | --- |
| RKLDTFFVKLSLFTER [SEQ ID NO 3] | > 500 | – |
| KKLDTFFVKLSVFTER [SEQ ID NO 20] | > 500 | – |
| QKLDTFFVKLSLFTER [SEQ ID NO 278] | – | ≥ 98 % of P28R control |
| LKLDTFFVKLSLFTER [SEQ ID NO 274] | – | ≥ 98 % of P28R control |
| KKLDTFFVKLSLSTER [SEQ ID NO 27] | > 500 | – |
| KKADTFFVKLSLFTER [SEQ ID NO 282] | – | ≥ 98 % of P28R control |
| KKFDTFFVKLSLFTER [SEQ ID NO 286] | – | ≥ 98 % of P28R control |
| KKLATFFVKLSLFTER [SEQ ID NO 298] | – | ≥ 98 % of P28R control |
| KKLITFFVKLSLFTER [SEQ ID NO 300] | – | ≥ 98 % of P28R control |
| EKLDTFFVKLSLFTER [SEQ ID NO 270] | – | ≥ 98 % of P28R control |
| RKLDTFFVKLSLFTER [SEQ ID NO 279] | – | ≥ 98 % of P28R control |
| KKLDTVFVKLSLFTER [SEQ ID NO 8] | > 500 | – |
| KKNDTFFVKLSLFTER [SEQ ID NO 292] | – | ≥ 98 % of P28R control |
| KKLDTFFVKLHLFTER [SEQ ID NO 18] | > 500 | – |
| KKLDTFFVKLSLATER [SEQ ID NO 29] | > 500 | – |
| KKMDTFFVKLSLFTER [SEQ ID NO 291] | – | ≥ 98 % of P28R control |
| KKLDTFFVKLSMFTER [SEQ ID NO 21] | > 500 | – |
| KKLDTFLVKLSLFTER [SEQ ID NO 13] | > 500 | – |
| KKLDTFFVKLSLPTER [SEQ ID NO 26] | > 500 | – |

| Binder | rampo value [rampo units] | rampo score relative to the P28R control sample |
| --- | --- | --- |
| GKLDTFFVKLSLFTER [SEQ ID NO 271] | – | ≥ 98 % of P28R control |
| PKLDTFFVKLSLFTER [SEQ ID NO 277] | – | ≥ 98 % of P28R control |
| KKEDTFFVKLSLFTER [SEQ ID NO 285] | – | ≥ 98 % of P28R control |
| KKLDTFFVKLTLFTER [SEQ ID NO 17] | > 500 | – |
| KKLETFFVKLSLFTER [SEQ ID NO 299] | – | ≥ 98 % of P28R control |
| AKLDTFFVKLSLFTER [SEQ ID NO 268] | – | ≥ 98 % of P28R control |
| KKLDTFVVKLSLFTER [SEQ ID NO 11] | > 500 | – |
| KKLDTFFVKLSLRTER [SEQ ID NO 30] | > 500 | – |
| IKLDTFFVKLSLFTER [SEQ ID NO 273] | – | ≥ 98 % of P28R control |
| KKLDTFFVKLSLFPER [SEQ ID NO 32] | > 500 | – |
| KKLDTFFVKLSLFNER [SEQ ID NO 31] | > 500 | – |
| KKRDTFFVKLSLFTER [SEQ ID NO 294] | – | ≥ 98 % of P28R control |
| HKLDTFFVKLSLFTER [SEQ ID NO 272] | – | ≥ 98 % of P28R control |
| KKIDTFFVKLSLFTER [SEQ ID NO 289] | – | ≥ 98 % of P28R control |
| KKTDTFFVKLSLFTER [SEQ ID NO 296] | – | ≥ 98 % of P28R control |
| KKDDTFFVKLSLFTER [SEQ ID NO 284] | – | ≥ 98 % of P28R control |
| KKEDTFFVKLSLFTER [SEQ ID NO 5] | > 500 | – |
| KKLDTFFVKLSLFRER [SEQ ID NO 33] | > 500 | – |
| KKCDTFFVKLSLFTER [SEQ ID NO 283] | – | ≥ 98 % of P28R control |

| Binder | rampo value [rampo units] | rampo score relative to the P28R control sample |
| --- | --- | --- |
| KKLDQFFVKLSLFTER [SEQ ID NO 6] | > 500 | – |
| KKLDTFFVKLSLGTER [SEQ ID NO 28] | > 500 | – |
| NKLDTFFVKLSLFTER [SEQ ID NO 276] | – | ≥ 98 % of P28R control |
| DKLDTFFVKLSLFTER [SEQ ID NO 269] | – | ≥ 98 % of P28R control |
| KKSDTFFVKLSLFTER [SEQ ID NO 295] | – | ≥ 98 % of P28R control |
| MKLDTFFVKLSLFTER [SEQ ID NO 275] | – | ≥ 98 % of P28R control |
| KKLDTFTVKLSLFTER [SEQ ID NO 12] | > 500 | – |
| KKHDTFFVKLSLFTER [SEQ ID NO 288] | – | ≥ 98 % of P28R control |
| KKLDTAFVKLSLFTER [SEQ ID NO 7] | > 500 | – |
| KKVDTFFVKLSLFTER [SEQ ID NO 297] | – | ≥ 98 % of P28R control |
| TKLDTFFVKLSLFTER [SEQ ID NO 280] | – | ≥ 98 % of P28R control |
| KKLDTFFVKLSQFTER [SEQ ID NO 19] | > 500 | – |
| KKGDTFFVKLSLFTER [SEQ ID NO 4] | > 500 | – |
| KKLDTFFVKVSLFTER [SEQ ID NO 14] | > 500 | – |
| KKKDTFFVKLSLFTER [SEQ ID NO 290] | – | ≥ 98 % of P28R control |
| VKLDTFFVKLSLFTER [SEQ ID NO 281] | – | ≥ 98 % of P28R control |
| KKGDTFFVKLSLFTER [SEQ ID NO 287] | – | ≥ 98 % of P28R control |
| KKQDTFFVKLSLFTER [SEQ ID NO 293] | – | ≥ 98 % of P28R control |

Target: T2, His-tagged P3028
Assay: chip ELISA

| Binder | ELISA signal |
| --- | --- |
| KKLDTFFIKLSLFTER [P28R V8I] | 401 |
| KKLDTFFQKLSLFTER [P28R V8Q] | 271 |
| KKLDTFFKKLSLFTER (also called P27; SCF27) [P28R V8K] | 253 |
| KKLDTFFYKLSLFTER [P28R V8Y] | 211 |
| KKLDTFFLKLSLFTER [P28R V8L] | 411 |
| KKLDTFFTKLSLFTER [P28R V8T] | 298 |
| KKLDTFFNKLSLFTER [P28R V8N] | 203 |
| KKLDTFFWKLSLFTER [P28R V8W] | 228 |
| KKLDTFFSKLSLFTER [P28R V8S] | 216 |
| KKLDTFFRKLSLFTER [P28R V8R] | 365 |
| KKLDTFFMKLSLFTER [P28R V8M] | 221 |
